In the domain aggregation screens of Martell et al. (2025):

Assay: soluble fraction after stress (log2 fold change); higher = more stays soluble; pooled small domains, quantitative proteomics
Conditions: stress: 75 degC
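Further: 20 min heating vs room temperature control held 20 min.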

Sequence | soluble fraction (log2)
HMSNSMISKDKAMSIALAKVSGATSSNIYIELEKDDGRYTYEGEINFNNKEYEFEIDAYTGNILKWEVDSI | -0.806
HMSNTPHSREVLLEMDAVRRLLAVGEEKGEVDRADLQGAFEEAELGRGDLDGVLSILREYDVPLAR | 0.0604
HMSNVIYFNYNDYKFLFMGDAGVDKETDILEKYTLSNIDFLKVGHHGSDTSSNKGFIDSIQPKYSLIS | -1.53
HMSNWTILIIQGSAHLIDLDSKITEIDGFGSFPTKILQDYNLNEEFEIFDTNVKMVNSVQSDLQSN | -2.48
HMSNYIVELSSSEKIDDIDNNNNLINSFFSKSDSQWEYKLVFKNKNEMDVFVKKISTNNKIISYKTSS | -1.17
HMSPAETGIYHILVENGKPNRHGLDATNKNENWLRQFLITQNTRLEDVFLLLADDGGGIRFFKSQ | -1.26
HMSPAPVSVDHLAFPTRDLEATDHFYSKVVGATLVHAESGYSPSWKSDYLLITYALPDGTRLSFFDWP | 0.105
HMSPDTREAILAAARTAFARDGYQTSLRGIARDAGVDPALVHHYFPDRATLFAKAVIESTAG | -0.0532
HMSPFAHHLHELRMRHGIRQNELAELIGYDQTYISALEVGLKGPPTPEFVDKLVEGLALSRTEEAALRSAA | -0.483
HMSPFYALDEVDSFLDGVNVERLAALIARQAEQAQFLVVSHRRPMIGASTRTIGVTQARGAHTQVVGLP | -0.312
HMSPGAKIEVTGNTVNLRAGPGTNYDTRGQVKKGEQLPLLGEQGGWYRVQTSRGVAYLAGWLARVLT | -1.43
HMSPLDSHLGRRIALRRQQLNTSAADLEKAISMVPGSVARFEAGRQSLNATQLFTLSRALDVPVLYFFEG | -0.705
HMSPREDQQSRKQHILEAAAVLFAERGYYKTTTADVARAVGVTQPYVFHFFKSKEELYLAVL | 0.163
HMSPSDLSAEAQKVYALLDGRELSFDTLVEESGFDTGSLLAILMRLEMKMLVEHGADQVYRRSG | -1.51
HMSPVKAPLPGVVLDIHVSVGQEVKASDTVVTLEAMKMENAIKAGVDGKVASISVGKGDSVLEGAVLLTI | -0.0893
HMSQAVTMLKAGRLLANSKGTGAAVRDLEPGMLLYPTGQKDGTMWEVEDEMGNKGWVNSTSMQLA | 0.271
HMSQDEKITNYIYEGNKNTQTEAFVEAEKSYRKALSLSPEKPEALYNLGNTHFLDKQYDEASQRFF | 0.0479
HMSQDINVFIKTNPENATIIWDGESKGTNGIFKSNAGAHRLRIEMQGYESIDQDIQVSDKQFSFEYNLKKE | 0.138
HMSQIANLLLSKNIKVNNQNIIYYETVLKYLPNNEKKEFFINAMKNNIYFTEEEIKNFGNIFN | -2.74
HMSQIQIKLDQAIMQLPEKQRFVFMLRYFEELPYEKIAQITETSIGGAKANFHQALKKMQEIIQ | -2.96
HMSQKVQEDFLGDIRKNEIAVTVFLINGVKLQGVITWFDDASILLRRDGHTQLIYKHAVSTIMPGVAVDI | -0.582
HMSQLYINATDDGWVIGNLPADAREVLLTTLGGQVVARYHVTAPSLRVKAPRKGVYIVSVETA | -2.11
HMSQQVVTDGVNLRLRYAPSPDAETYKWADGTNRHPEKGERFPYLGDIGDFYRIDYKGLVLYVSKQHTHL | -2.04
HMSQRITYTEFVQMVKDDKVEKVEVGANQYNITPKSDDKTLVKMTYYTGFIKDENLLDLLNKHKVEIDGYI | -0.792
HMSQSIGQEKALSIALADAGVQKENALGLEVKGEYDDGQLLYEVEFRAGGVEYEYEVRASDGRIVKAERD | 0.0638
HMSQSMEVLYTDLTDKDAAAIVEKLEEEKIPYQLEDQGTTILVPPGVKYTTRLKLAAEDLPKG | 0.0723
HMSQYVPDPVLNAALVGYLDFRKQAGKPMTDYSIRLLLVDLAKLSGNPQEQAAILDQSTKNNWIGVYALG | -3.04
HMSRAARLALDALPDEWAQFAESRGLAGSAMAETWETFRDYWQAQPGQKGVKADWAATWRNWVRRETQNRG | -0.378

Sequence | soluble fraction (log2)
HMSRDYKTELQERLQVNGPVKIEYQVIAEDESKPSFKVQLLVNDKKISEGQGRNKKAAEQQAAQAAL | 0.0103
HMSREEFLTELRKALQGRVSQQTVNDNLRYYEEYILTESHKGKTEAEVIAELGNPRLLAKSIIDAENAT | 0.0701
HMSRESNISTGRQLLEAQLPTWGYKKVEDIPSKQMKTALDAFNYKDVESLLQGLGEGSVALTTALRRLMP | -0.095
HMSRFLEGILQRRAGGKNYFVPDDGSNPIFIADRNSAGAANGDRVRIAQFARRPRSGPEGEVVEILKRAK | -0.0772
HMSRGAIVTGTVIEKNQSGIYVDLGYKSDGIVPIEEFDGEESKYNVGDQIRVYVKKVDDGHGQLML | 0.142
HMSRGTRIDPNWQPSPEDRALARAEGFSDPEIDREALQFRDYWLGASGSNAVKLDWSATWRNWVRRAATNF | -0.396
HMSRKERERSQHRRDILAAGEKIFAQKGYFNATIEEIAREAEFSVGTIYNFFSNKETLYQEIIRSI | -0.418
HMSRLQDAELQAQIDKMAGAMQLRDIPVYVQDIPTINGLAAPDGRVFITQGFIDKYKLGEVSAGEIASVI | 0.29
HMSRPLISNMLRLLNLPPTVQRKVAAGVISAGHARALLGLNDEKEIEKLANRIVAEGLSVRATEEIVAIA | -1.62
HMSRWHEFLNKSEDGMKELDEQNQKVLTLLILQRFYQTPFQAKEDEEFYREFFERLSSVNEILG | -0.468
HMSSAYLTVRGIDIDVIYKDIKNLHIAVYPPFGRVRVAAPSHLDDDQVRLAVIQRLTWIKRQRERLRST | -1.62
HMSSDEAEYKLLLGQEGVAKSPLRPSGVVDFSGRRLDVQTLGDFIESGETVVVKQVNGHRVLVERK | 0.135
HMSSDEEQLATLTRLLQKQEQIIQTLGPRNPMVSLQQYANTITKVIEMAGFKDTSQFINSQIP | 0.0951
HMSSDLESVIGTHSQEANFALRSWGWIQPDETWKNLRPDQVSQILERANEFMAKAIESFANAQSE | -0.141
HMSSDLLGVRVRRARARAGLTRRRLSLLSGVSERFLAQLESGQGNISIVLIRRVAAALGAELVELIGS | -0.555
HMSSEDTQSRDRARKELSNEMSRIMKRYGLDYQPRDNADDIMNRLKAAGADENTLAYVQEKLK | -0.0442
HMSSEITYDKFIEMVDKDQVKEVTLQSGVLTVVPKIQKSYYQNASYKVNQMEDVDALTKRLEGTGIVFHY | 0.322
HMSSEITYDKFIEMVEEGNVKEVTLQSDTLTIKPKHQDSAFSEKEYYTRQMESADQLTERLEGTGIEFHS | 0.119
HMSSEQRSVLFPNLAETDKVAVIEALMAAGVNARVDSASGRVTVPSGDYYNSRAILAAQGLPTS | 0.0148
HMSSETTVPAVVGIKEDKARQLASEQGLRLRVKSREESADVEEGIIISQDPNSNTKVKKGDEIEVVVS | 0.102
HMSSFSESFHKALNNLDDKHKSVFSLRHFEGFSMKEIAETLNINEGTVKSRLFYATKTLAGALKEF | -3.45
HMSSGKTGTITLQPKQTVYGITKQYKISEADLRKLNPQLDSNLKIGDKITLPLDNIQRYSDSSSNVAQT | 0.0568
HMSSGLLTVQEQRILEHLANGERNGDIAGRLHISEGTVKWHLHNMYRKLDAATRTQAVARARALRL | 0.36
HMSSIGERISDVRKARGYTQDQLAERIHVSRQTISHWENERALPDFESIKQLSQVLGYDFSS | -0.123
HMSSIHQDAKQQLHEYIRTYIQPLMRAGKQVTVWDIIGHVTIRKPKLVQKIGTQQLINMVQDLLE | -0.624
HMSSKSDQLYLQLRRRISAMKDGEPFPTVRQLMTEYQVSQSTVTPAINQLKEKGLIEAYVGRGSFVSKK | -0.657
HMSSKTKVEDLGLSTRTLNALIGGSIKTAGGLTRKSESDLLSLDGLGEKGITEIKEALENIGLSLK | 0.103
